In article PMC8329863 (Acta Crystallographica. Section D, Structural Biology, 2021):

Legend:
VanRSc = molecular target: T1, VanRSc (Streptomyces coelicolor, UniProt Q8CJW1); settings: BeF3- formed from BeSO4 and NaF; Mg2+ present; phosphomimetic bound to Asp51 in the receiver domain; crystals at pH 7, room temperature
T1 construct: gene SCO3590

[1] = molecular target: full-length VanR from Streptomyces coelicolor, activated state (beryllium fluoride bound at Asp51) (Streptomyces coelicolor); test: crystal structure; activated VanRSc co-crystallized with beryllium fluoride, microbatch under oil, 2.5 M NaCl, 0.1 M Tris pH 7, 0.2 M MgCl2, room temperature; monomer in the asymmetric unit, dimer by crystal symmetry
[2] = molecular target: T2, full-length VanR from Streptomyces coelicolor, inactive (unphosphorylated) state (Streptomyces coelicolor); test: AUC; sedimentation equilibrium, 4°C, 18 000, 20 000 and 22 000 rev/min, without beryllium fluoride; global fit, monomer-dimer model (dimer to monomers); settings: both partners purified
T2 chain: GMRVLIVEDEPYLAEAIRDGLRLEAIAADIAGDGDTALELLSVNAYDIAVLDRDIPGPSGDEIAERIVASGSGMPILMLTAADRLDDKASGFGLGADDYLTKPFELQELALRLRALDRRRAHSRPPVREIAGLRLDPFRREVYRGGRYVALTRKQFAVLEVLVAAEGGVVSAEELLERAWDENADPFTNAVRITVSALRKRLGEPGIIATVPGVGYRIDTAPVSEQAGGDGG

[3] = molecular target: T2, full-length VanR from Streptomyces …; test: AUC; sedimentation velocity, 20°C, 50 mM Tris pH 7.5, 50 mM NaCl, 10 mM MgCl2, without beryllium fluoride; 36.5 µM monomer; monomer-dimer model (dimer to monomers); settings: both partners purified

With `[F][Be-]([F])[F]` [beryllium fluoride] as the molecule, how does the “X-ray crystallography, 2.03 A co-crystal structure” value (VanRSc) read?
The value was “The Be atom is bound to one of the carboxylate O atoms of Asp51”.

“full-length VanR from Streptomyces coelicolor, activated state (beryllium fluoride bound at Asp51) (natural protein)” was tested. Which stoichiometry N [1] did it give?
The stoichiometry N was 2.

B1: full-length VanR from Streptomyces coelicolor, inactive (unphosphorylated) state (natural protein)
chain: GMRVLIVEDEPYLAEAIRDGLRLEAIAADIAGDGDTALELLSVNAYDIAVLDRDIPGPSGDEIAERIVASGSGMPILMLTAADRLDDKASGFGLGADDYLTKPFELQELALRLRALDRRRAHSRPPVREIAGLRLDPFRREVYRGGRYVALTRKQFAVLEVLVAAEGGVVSAEELLERAWDENADPFTNAVRITVSALRKRLGEPGIIATVPGVGYRIDTAPVSEQAGGDGG
modifications: unphosphorylated at Asp51 (paper numbering; entity position 52), no beryllium fluoride; Mg2+ present (10 mM MgCl2 in AUC). Wild-type residues 1-231 plus the N-terminal Gly left after SUMO cleavage. …
What does the source list for B1?
Kd [2]: 37 µM; Kd [3]: > 1000 µM
